B4: Rrn3 (Pol I-specific initiation factor), overexpressed in yeast as Rrn3-TEV-ProtA-His7 (natural protein, S. cerevisiae)
chain: MMAFENTSKRPPQDFVAPIDQKKRKVQFSDSTGLVTLQPEEIKDEVFSAAMYSRFVKSALDDLDKNDSTQIGIIANQVALPSKNPERINDKNLNILLDILSSNINRIESSRGTFLIQSIINFEKWWELPPHTLSKYIYFIKILCSSIPKWWQDVSMILVSCFILPIKQTVCHHDMLKYFLRMIPSSMGFIDTYLAKFFPNKNDTRRKLVNYTSNLLKLRGYCSELGFQIWSLLIEKIISIDVELQNELDELDDDVDDDDLEEVDLEDDDDLDDDSGDDDDENCGNSNEELRSGAADGSQSDSEDMDIIEGMDGTEEYNVELTQGIKELSTKLDSILTLVSTHVEEQVTPESLESGEGVGVFNTLTTLFKTHVLPTYYTRSIQYIMFHVSQQQLELMDSFLVTLIDISFAVNEAAEKKIKSLQYLGSYIARAKKLSRTQIIFVASYLTSWLNRYVIEREEEVDQRGGMERFKHFYAAFQALCYIFCFRHNIFRDTDGNWECELDKFFQRMVISKFNPLKFCNENVMLMFARIAQQESVAYCFSIIENNNNERLRGIIGKADSDKKENSAQANTTSSSWSLATRQQFIDLQSYFPYDPLFLKNYKILMKEYYIEWSEASGEYESDGSDD
notes: Rrn3, RNA polymerase I-specific transcription initiation factor, S. cerevisiae; Released from the beads by TEV protease; source: S. cerevisiae strain y2183 with plasmid 729 (Ycplac111-GAL-Rrn3-TEV-ProtA-HIS), galactose-induced; purified in complex with Pol I (IgG beads, TEV elution)

Experiment [1] deals with Rrn3-free RNA polymerase I (WT Pol I) purified through A135-TEV-ProtA (S. cerevisiae (endogenous in yeast) | S. cerevisiae) (UniProt P10964).
Rrn3-free RNA polymerase I (WT Pol I) purified through A135-TEV-ProtA (S. cerevisiae (endogenous in yeast) | S. cerevisiae), sequence (P10964 whole entry, looked up): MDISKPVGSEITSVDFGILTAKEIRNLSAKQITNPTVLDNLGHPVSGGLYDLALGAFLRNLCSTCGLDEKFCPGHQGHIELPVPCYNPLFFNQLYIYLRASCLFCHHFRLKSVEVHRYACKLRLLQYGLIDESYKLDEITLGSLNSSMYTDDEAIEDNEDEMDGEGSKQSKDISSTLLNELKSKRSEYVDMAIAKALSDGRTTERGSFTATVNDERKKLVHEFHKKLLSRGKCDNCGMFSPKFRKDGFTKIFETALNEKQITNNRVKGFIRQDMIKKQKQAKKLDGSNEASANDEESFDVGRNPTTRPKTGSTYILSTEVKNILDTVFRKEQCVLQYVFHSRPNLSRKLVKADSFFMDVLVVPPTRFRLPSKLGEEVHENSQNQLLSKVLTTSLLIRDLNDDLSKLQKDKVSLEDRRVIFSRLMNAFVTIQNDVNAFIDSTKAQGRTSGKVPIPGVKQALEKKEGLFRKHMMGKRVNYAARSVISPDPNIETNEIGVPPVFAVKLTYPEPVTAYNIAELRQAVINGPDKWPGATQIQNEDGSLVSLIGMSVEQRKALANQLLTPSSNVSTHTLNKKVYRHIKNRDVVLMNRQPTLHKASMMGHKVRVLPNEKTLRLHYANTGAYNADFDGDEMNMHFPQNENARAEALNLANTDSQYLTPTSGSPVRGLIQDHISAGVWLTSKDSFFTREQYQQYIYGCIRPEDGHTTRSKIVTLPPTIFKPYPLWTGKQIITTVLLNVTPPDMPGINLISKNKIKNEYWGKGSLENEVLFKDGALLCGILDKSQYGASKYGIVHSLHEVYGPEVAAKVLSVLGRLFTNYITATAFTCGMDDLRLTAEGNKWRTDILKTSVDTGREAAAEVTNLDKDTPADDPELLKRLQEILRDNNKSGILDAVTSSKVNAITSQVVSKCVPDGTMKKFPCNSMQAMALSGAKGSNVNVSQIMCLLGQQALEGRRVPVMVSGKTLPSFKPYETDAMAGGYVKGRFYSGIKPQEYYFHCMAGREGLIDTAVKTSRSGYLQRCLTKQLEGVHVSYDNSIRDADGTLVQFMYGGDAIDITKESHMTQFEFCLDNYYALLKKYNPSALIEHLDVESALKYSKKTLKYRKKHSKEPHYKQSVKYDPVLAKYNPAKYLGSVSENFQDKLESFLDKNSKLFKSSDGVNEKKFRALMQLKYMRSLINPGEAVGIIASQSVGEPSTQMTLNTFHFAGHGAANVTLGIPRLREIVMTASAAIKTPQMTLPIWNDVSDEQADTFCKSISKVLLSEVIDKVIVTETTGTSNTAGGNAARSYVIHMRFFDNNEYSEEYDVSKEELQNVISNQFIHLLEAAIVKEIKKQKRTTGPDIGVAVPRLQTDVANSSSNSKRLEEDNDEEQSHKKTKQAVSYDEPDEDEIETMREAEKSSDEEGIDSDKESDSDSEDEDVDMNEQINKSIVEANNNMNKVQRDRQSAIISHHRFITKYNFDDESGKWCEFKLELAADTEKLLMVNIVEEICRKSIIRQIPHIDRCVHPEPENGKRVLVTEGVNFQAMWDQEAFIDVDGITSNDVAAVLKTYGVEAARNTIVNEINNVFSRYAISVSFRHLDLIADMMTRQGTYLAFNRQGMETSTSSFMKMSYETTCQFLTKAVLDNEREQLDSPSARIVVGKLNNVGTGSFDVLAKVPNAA
For experiment [2], the target named is B4. Briefly: cryo-EM structure; Pol I-Rrn3 complex purified from yeast, cross-linked with 0.5% glutaraldehyde for 2 min; 20 mM Hepes pH 7.8, 100 mM ammonium acetate, 2 mM MgCl2; 32,438 particles of intact complex; 7.5 Å; crystal structures of Pol I and Rrn3 docked into the map. Conditions: both partners purified.
In experiment [3] the target is T1, Pol I subunit A190 (largest subunit) (S. cerevisiae (endogenous in yeast), UniProt P10964 1-1664).
T1 construct: A190, largest subunit of RNA polymerase I, S. cerevisiae; source: endogenous, S. cerevisiae; part of Pol I purified with Rrn3-ProtA (y2183) or through A135-ProtA (y2423)
T1 sequence (P10964 whole entry): as the sequence (P10964 whole entry, looked up) above
Described as above. Conditions: both partners purified.

Consider “Recombinant His6-Rrn3 (from UniProt P36070 1-627) (natural protein)”, for which the promoter-dependent in vitro transcription: purified Pol I-Rrn3 complex against the same concentration of Rrn3-free Pol I with recombinant His6-Rrn3 (70 nM) and CF (20 nM) in experiment [1] was below 10 fold.

B1: Pol I subunit AC19 (natural protein, S. cerevisiae (endogenous in yeast), UniProt P28000 1-142, looked up)
chain: MTEDIEQKKTATEVTPQEPKHIQEEEEQDVDMTGDEEQEEEPDREKIKLLTQATSEDGTSASFQIVEEDHTLGNALRYVIMKNPDVEFCGYSIPHPSENLLNIRIQTYGETTAVDALQKGLKDLMDLCDVVESKFTEKIKSM
notes: AC19, subunit shared by RNA polymerases I and III, S. cerevisiae; source: endogenous, S. cerevisiae; part of Pol I purified with Rrn3-ProtA (y2183)
Turning to B1, the binding result in experiment [2] is reported as “binds”.

B2: Pol I subunit AC40 (natural protein, S. cerevisiae (endogenous in yeast), UniProt P07703 1-335, looked up)
chain: MSNIVGIEYNRVTNTTSTDFPGFSKDAENEWNVEKFKKDFEVNISSLDAREANFDLINIDTSIANAFRRIMISEVPSVAAEYVYFFNNTSVIQDEVLAHRIGLVPLKVDPDMLTWVDSNLPDDEKFTDENTIVLSLNVKCTRNPDAPKGSTDPKELYNNAHVYARDLKFEPQGRQSTTFADCPVVPADPDILLAKLRPGQEISLKAHCILGIGGDHAKFSPVSTASYRLLPQINILQPIKGESARRFQKCFPPGVIGIDEGSDEAYVKDARKDTVSREVLRYEEFADKVKLGRVRNHFIFNVESAGAMTPEEIFFKSVRILKNKAEYLKNCPITQ
notes: AC40, subunit shared by RNA polymerases I and III, S. cerevisiae; source: endogenous, S. cerevisiae; part of Pol I purified with Rrn3-ProtA (y2183)
Turning to B2, in experiment [2], the binding result was “binds”.

B3: Pol I subunit A14 (natural protein, S. cerevisiae (endogenous in yeast), UniProt P50106 1-137, looked up)
chain: MMKGSRRTGNNTATTLNTPVVIHATQLPQHVSTDEVLQFLESFIDEKENIIDSTTMNTISGNAADADAAAVANTSLNIDTNLSSSISQLKRIQRDFKGLPPAQDFSAAPIQVSTTEKKETSIGVSATGGKKTTFADE
notes: A14, subunit of RNA polymerase I, S. cerevisiae; source: endogenous, S. cerevisiae; part of Pol I purified with Rrn3-ProtA (y2183)
As for B3, the binding result in experiment [2] is on record as “binds”.

With B4, in experiment [3], the binding result was “binds”.

The values above are taken from article PMC4947174 (Nature Communications, 2016).
